Results reported in article PMC6508567.
Each block holds one binder with its values, some of them ahead of it.

Key:
[1] = biological target: β-amylase WT (barley (Hordeum vulgare) cv. Harrington) (UniProt P16098)
[2] = biological target: β-amylase WT (barley (Hordeum vulgare) cv. Harrington) (UniProt P16098); remark: listed apart in the source
[3] = biological target: β-amylase WT (barley (Hordeum vulgare) cv. Harrington) (UniProt P16098); remark: listed apart in the source
[4] = biological target: β-amylase WT (barley (Hordeum vulgare) cv. Harrington) (UniProt P16098); experiment: SPR; β-amylase immobilised by amine coupling on a CM5 chip, serpin Z4 injected at 0.6, 0.5, 0.4, 0.3 and 0.2 μM; PBS; Biacore T200
[5] = biological target: β-amylase WT (barley (Hordeum vulgare) cv. Harrington) (UniProt P16098); experiment: MST; β-amylase labelled with an NHS-ester fluorescent dye (70 nM), unlabelled serpin Z4 from 40 μM to 1 nM; PBS with 0.1% Tween-20; Monolith NT.115; three replicates combined
[6] = biological target: chymotrypsin

EC50 of serpin Z4 for the enhancement of β-amylase activity, Betamyl-3 method [1]: 180 nM
EC50 of serpin Z4 for the enhancement of β-amylase activity, DNSA method [1]: 300 nM
Vmax of β-amylase with serpin Z4 at a 1:5 molar ratio (Lineweaver-Burk), with or without DTT [2]: 2 fold
β-amylase activity (DNSA) over 37-62°C with serpin Z4 at 1:5; at 50°C against β-amylase alone at optimal temperatures [3]: 60%
Kd [4]: 142 nM
Kd [5]: 200 nM
B1: serpin Z4 (natural protein)
chain: MATTLATDVRLSIAHQTRFALRLRSAISSNPERAAGNVAFSPLSLHVALSLITAGAAATRDQLVAILGDGGAGDAKELNALAEQVVQFVLANESSTGGPRIAFANGIFVDASLSLKPSFEELAVCQYKAKTQSVDFQHKTLEAVGQVNSWVEQVTTGLIKQILPPGSVDNTTKLILGNALYFKGAWDQKFDESNTKCDSFHLLDGSSIQTQFMSSTKKQYISSSDNLKVLKLPYAKGHDKRQFSMYILLPGAQDGLWSLAKRLSTEPEFIENHIPKQTVEVGRFQLPKFKISYQFEASSLLRALGLQLPFSEEADLSEMVDSSQGLEISHVFHKSFVEVNEEGTEAGAATVAMGVAMSMPLKVDLVDFVANHPFLFLIREDIAGVVVFVGHVTNPLISA

inhibition factor X inh from the residual peptidase activity of chymotrypsin on casein, serpin:protease 2:1 [6]: 0.88
B2: serpin BsZx (natural protein)
chain: MATTDIRLSIAHQTRFAVRLASAISSPSHAKGSSGNAAFSPLSLHVALSLVAAGAAATRDQLAATLGAAEKGDAEGLHALAEQVVQVVLADASGAGGPRSFANVFVDSSLKLKPSFKDLVVGKYKGETQSVDFQTKAPEVAGQVNSWVEKITTGLIKEILPAGSVDSTTRLVLGNALYFKGSWTEKFDASKTKDEKFHLLDGSSVQTPFMSSTKKQYISSYDSLKVLKLPYQQGGDKRQFSMYILLPEAQDGLWNLANKLSTEPEFMEKHMPMQKVPVGQFKLPKFKISFGFEASDMLKGLGLQLPFSSEADLSEMVDSPAARSLYVSSVFHKSFVEVNEEGTEAAARTARVVTLRSLPVEPVKVDFVADHPFLFLIREDLTGVVLFVGHVFNPLVSA
